For the test, the target named is mouse soluble recombinant SLLP1 (mouse) (UniProt Q9D9X8). In words: SPR. On the technique in general: In SPR one partner is held on a chip, and binding of the other changes the refractive index at the surface.
UniProt Q9D9X8, sequence (Q9D9X8 95-221): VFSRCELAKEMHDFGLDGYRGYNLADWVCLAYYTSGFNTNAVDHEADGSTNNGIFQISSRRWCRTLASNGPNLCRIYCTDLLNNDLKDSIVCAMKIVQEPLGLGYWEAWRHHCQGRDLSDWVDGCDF

For orientation: Kd means the constant that tells how readily two partners part at equilibrium. For the substance “recombinant mouse SAS1B (V2), full length doublet (~51, ~50 kD) (natural protein)”, the dissociation constant (Kd) is 0.32 nM.

Values taken from PMC3307385.
